This is an account of results in PMC9438803 (Life Science Alliance, 2021).

Data set [1] deals with RPA49/RPA34 heterodimer full length (Homo sapiens, UniProt Q9GZS1;O15446 1-419;1-510). Description: EMSA; EMSA: 100 fmol DNA, up to 50x protein, RT 30 min; buffer 1: 10 mM Tris pH 7.5, 50 mM NaCl, 1 mM MgCl2, 4% glycerol, 0.5 mM EDTA, 0.5 mM DTT; or buffer 2: 20 mM. Particulars: protein: recombinant; tags: N-term 6xHis on RPA49; RPA34 untagged; copies: 1;1; label: 5'-Cy5 on strand 1; blunt. In general terms: In EMSA bound probe runs differently from free probe, usually more slowly.

A further data set has as its target dock II minimal (Homo sapiens, UniProt O95602 1081-1146). The experiment in a line: EMSA; up to 50x protein excess; no major DNA binding; EMSA: 100 fmol DNA, up to 50x protein, RT 30 min; buffer 1: 10 mM Tris pH 7.5, 50 mM NaCl, 1 mM MgCl2, 4% glycerol, 0.5 mM EDTA, 0.5 mM DTT; or buffer 2: 20 mM. Particulars: protein: recombinant; tags: C-term His-MBP; label: 5'-Cy5 on strand 1; blunt.

In data set [2] the target is T1, recombinant human Topoisomerase 2a lacking the unstructured C-terminal domain (1-1,217) (human, UniProt P11388 1-1217).
T1 construct: human Topoisomerase 2a residues 1-1,217; A legend on the cited structures calls Top2a a homodimer; also called Top2a ΔC; Top2aΔCTD; source: recombinant, purified
The experiment in a line: mass spectrometry of bands cut from the native PAGE; unshifted and shifted Top2a bands of the blue-native gel analysed by mass spectrometry. Particulars: both partners purified.

RPA49/RPA34 heterodimer full length, sequence (Q9GZS1 whole entry, chain 1 of 2): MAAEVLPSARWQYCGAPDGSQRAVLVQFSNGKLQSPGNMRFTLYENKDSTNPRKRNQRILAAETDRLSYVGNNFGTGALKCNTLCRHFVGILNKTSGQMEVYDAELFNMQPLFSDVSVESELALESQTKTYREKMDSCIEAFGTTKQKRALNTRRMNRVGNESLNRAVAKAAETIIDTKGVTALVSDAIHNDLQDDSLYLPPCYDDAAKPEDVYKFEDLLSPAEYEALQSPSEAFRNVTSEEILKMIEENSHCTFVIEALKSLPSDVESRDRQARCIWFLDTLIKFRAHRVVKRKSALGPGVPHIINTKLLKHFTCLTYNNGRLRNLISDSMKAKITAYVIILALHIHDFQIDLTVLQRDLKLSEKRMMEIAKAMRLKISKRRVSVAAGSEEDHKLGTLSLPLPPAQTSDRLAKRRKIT
RPA49/RPA34 heterodimer full length, sequence (O15446 whole entry, chain 2 of 2): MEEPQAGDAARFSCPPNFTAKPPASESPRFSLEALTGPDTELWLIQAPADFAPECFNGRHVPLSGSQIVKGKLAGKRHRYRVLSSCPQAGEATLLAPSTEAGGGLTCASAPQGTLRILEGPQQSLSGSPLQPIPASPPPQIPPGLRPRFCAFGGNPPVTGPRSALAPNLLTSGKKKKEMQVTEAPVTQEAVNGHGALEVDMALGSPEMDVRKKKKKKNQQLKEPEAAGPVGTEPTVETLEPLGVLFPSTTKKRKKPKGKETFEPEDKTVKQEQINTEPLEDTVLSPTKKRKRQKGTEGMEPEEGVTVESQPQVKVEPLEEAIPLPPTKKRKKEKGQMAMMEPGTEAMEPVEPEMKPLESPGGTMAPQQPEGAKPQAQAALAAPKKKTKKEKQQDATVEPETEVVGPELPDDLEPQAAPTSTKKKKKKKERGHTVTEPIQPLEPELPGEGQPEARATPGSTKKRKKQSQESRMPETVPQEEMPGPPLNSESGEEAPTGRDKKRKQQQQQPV
T1 sequence (P11388 1-1217): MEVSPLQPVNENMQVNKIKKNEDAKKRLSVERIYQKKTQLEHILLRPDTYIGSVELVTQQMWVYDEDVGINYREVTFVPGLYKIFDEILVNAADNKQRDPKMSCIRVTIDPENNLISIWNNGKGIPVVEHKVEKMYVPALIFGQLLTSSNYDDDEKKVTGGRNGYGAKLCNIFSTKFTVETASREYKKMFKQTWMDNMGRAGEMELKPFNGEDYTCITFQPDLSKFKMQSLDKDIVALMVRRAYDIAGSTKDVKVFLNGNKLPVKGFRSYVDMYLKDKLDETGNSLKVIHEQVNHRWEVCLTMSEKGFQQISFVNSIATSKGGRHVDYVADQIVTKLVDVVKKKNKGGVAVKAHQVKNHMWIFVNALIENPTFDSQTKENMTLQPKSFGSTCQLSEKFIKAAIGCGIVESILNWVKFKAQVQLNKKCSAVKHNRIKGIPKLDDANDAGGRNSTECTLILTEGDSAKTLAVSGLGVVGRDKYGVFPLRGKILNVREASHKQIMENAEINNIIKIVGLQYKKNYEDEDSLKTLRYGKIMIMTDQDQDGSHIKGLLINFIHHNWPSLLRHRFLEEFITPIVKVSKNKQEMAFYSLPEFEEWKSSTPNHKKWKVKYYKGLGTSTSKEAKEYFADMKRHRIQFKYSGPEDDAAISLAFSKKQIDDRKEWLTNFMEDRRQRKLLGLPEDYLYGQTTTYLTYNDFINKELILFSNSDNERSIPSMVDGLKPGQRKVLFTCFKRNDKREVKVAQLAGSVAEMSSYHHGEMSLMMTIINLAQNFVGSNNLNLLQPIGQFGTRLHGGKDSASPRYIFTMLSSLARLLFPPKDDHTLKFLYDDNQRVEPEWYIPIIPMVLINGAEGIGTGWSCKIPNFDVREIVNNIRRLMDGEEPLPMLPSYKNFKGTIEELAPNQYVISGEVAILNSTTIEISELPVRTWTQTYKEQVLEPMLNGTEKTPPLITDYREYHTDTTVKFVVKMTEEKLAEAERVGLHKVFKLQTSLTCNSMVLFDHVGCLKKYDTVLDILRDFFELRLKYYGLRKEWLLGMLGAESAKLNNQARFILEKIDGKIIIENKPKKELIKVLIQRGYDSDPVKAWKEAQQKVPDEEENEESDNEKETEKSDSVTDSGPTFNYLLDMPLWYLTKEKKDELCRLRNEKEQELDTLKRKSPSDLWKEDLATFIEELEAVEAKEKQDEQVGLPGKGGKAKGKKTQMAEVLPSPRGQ

B1: EMSA-DNA 40 bp (dsDNA)
DNA 1: CTGGAACAACACTCAACCCTATCTCGGTCTATTCTTTTGA
DNA 2: TCAAAAGAATAGACCGAGATAGGGTTGAGTGTTGTTCCAG
Turning to B1, the binding result is given as “binds” in data set [1] and “no binding” with dock II minimal.

B2: human dock II domain, full-length fragment (RPA1 1060-1155) with C-terminal His-MBP-tag (domain or fragment, UniProt O95602 1060-1155, looked up)
chain: ADPKKALHHFRAIKKWQSKHPNTLLRRGAFLSYSQKIQEAVKALKLESENRNGRSPGTQEMLRMWYELDEESRRKYQKKAAACPDPSLSVWRPDIY
notes: human RPA1 residues 1060-1155, the dock II domain (HMG box-like foot insertion); The results call it MBP-dock II; the methods say that the His-MBP tag is C-terminal; also called full-length MBP-dock II; dock II-MBP fusion; source: E. coli BL21 (DE3) RIL, purified (Ni-NTA, Superdex 75); not shown: His, C-terminal, kept; MBP, C-terminal, kept
As for B2, the binding result in data set [2] is listed as “binds”.
